Experimental data: publication PMC11642874 (bioRxiv, 2024)

What was measured:
[1] = target: Human mitochondrial RNA polymerase (POLRMT) Δ42 (human, UniProt O00411 43-1230); experiment: cryo-EM structure
[2] = target: T1, POLRMT-LSPDNA(−42to+9)-TFAM (P-D-T) complex (human, UniProt O00411 43-1230; Q00059 43-245); experiment: fluorescence polarisation
[3] = target: POLRMT Δ42;TFAM Δ42;TFB2M Δ59 (human;human;human, UniProt O00411;Q00059;Q9H5Q4 43-1230;43-246;60-396, ||); experiment: SEC and DLS
[4] = target: POLRMT Δ42;TFB2M Δ59 (human;human, UniProt O00411;Q9H5Q4 43-1230;60-396, |); experiment: cryo-EM structure 3.15 A
Chain of POLRMT Δ42;TFB2M Δ59 (O00411 43-1230, stated change not applied, one chain of several): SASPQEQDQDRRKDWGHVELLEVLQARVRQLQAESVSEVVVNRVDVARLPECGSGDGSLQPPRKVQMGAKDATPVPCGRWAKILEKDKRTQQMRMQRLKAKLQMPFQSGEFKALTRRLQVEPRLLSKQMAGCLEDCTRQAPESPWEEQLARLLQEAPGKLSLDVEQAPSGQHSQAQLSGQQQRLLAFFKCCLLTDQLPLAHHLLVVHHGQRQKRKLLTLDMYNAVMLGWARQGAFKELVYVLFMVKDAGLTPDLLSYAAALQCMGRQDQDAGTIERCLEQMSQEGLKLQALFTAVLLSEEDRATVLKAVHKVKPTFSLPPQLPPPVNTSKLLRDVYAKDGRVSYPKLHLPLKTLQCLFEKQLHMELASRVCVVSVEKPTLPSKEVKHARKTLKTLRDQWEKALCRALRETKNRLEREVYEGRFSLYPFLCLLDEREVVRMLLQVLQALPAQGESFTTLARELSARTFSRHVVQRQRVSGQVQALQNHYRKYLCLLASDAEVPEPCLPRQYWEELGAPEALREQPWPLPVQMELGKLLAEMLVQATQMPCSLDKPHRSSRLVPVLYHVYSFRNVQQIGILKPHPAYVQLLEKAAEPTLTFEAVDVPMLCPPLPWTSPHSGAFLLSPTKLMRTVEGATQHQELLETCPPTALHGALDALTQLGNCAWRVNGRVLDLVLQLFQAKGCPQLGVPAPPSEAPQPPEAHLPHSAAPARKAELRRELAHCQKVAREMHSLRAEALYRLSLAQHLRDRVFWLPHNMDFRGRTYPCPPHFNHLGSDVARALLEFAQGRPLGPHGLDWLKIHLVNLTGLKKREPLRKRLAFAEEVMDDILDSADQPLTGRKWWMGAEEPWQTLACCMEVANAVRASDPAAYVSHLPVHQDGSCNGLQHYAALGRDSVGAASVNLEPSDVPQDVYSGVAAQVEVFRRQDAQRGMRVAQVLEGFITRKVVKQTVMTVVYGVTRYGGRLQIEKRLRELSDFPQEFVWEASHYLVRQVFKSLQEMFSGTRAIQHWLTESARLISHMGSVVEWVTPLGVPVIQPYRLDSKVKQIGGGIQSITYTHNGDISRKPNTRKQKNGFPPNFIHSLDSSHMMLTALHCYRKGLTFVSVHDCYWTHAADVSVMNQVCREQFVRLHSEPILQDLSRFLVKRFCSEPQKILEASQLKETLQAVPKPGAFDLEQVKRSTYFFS

[5] = target: T1, POLRMT-LSPDNA(−42to+9)-TFAM (P-D-T) …; experiment: fluorescence polarisation; remark: listed apart in the source
[6] = target: POLRMT Δ42;TFAM Δ42;TFB2M Δ41, Alexa488 (human;human;human, UniProt O00411;Q00059;Q9H5Q4 43-1230;43-246;42-396, ||); experiment: fluorescence polarization
Chain of POLRMT Δ42;TFAM Δ42;TFB2M Δ41, Alexa488 (O00411 43-1230, stated change not applied, one chain of several): as above

T1 sequence (O00411 43-1230, one chain of several): as the sequence (O00411 43-1230, stated change not applied, one chain of several) above
Chain of Human mitochondrial RNA polymerase (POLRMT) Δ42 (O00411 43-1230, stated change not applied): as the sequence (O00411 43-1230, stated change not applied, one chain of several) above
Chain of POLRMT Δ42;TFAM Δ42;TFB2M Δ59 (O00411 43-1230, stated change not applied, one chain of several): as above

B1: Human transcription factor 2 (TFB2M) Δ59 (natural protein, UniProt Q9H5Q4 60-396, looked up)
chain: PPRKASKASLDFKRYVTDRRLAETLAQIYLGKPSRPPHLLLECNPGPGILTQALLEAGAKVVALESDKTFIPHLESLGKNLDGKLRVIHCDFFKLDPRSGGVIKPPAMSSRGLFKNLGIEAVPWTADIPLKVVGMFPSRGEKRALWKLAYDLYSCTSIYKFGRIEVNMFIGEKEFQKLMADPGNPDLYHVLSVIWQLACEIKVLHMEPWSSFDIYTRKGPLENPKRRELLDQLQQKLYLIQMIPRQNLFTKNLTPMNYNIFFHLLKHCFGRRSATVIDHLRSLTPLDARDILMQIGKQEDEKVVNMHPQDFKTLFETIERSKDCAYKWLYDETLEDR
- binding result [1]: binds

B2: Human transcription factor 2 (TFB2M) SGG-AAA (natural protein, UniProt Q9H5Q4 60-396, looked up)
chain: PPRKASKASLDFKRYVTDRRLAETLAQIYLGKPSRPPHLLLECNPGPGILTQALLEAGAKVVALESDKTFIPHLESLGKNLDGKLRVIHCDFFKLDPRAAAVIKPPAMSSRGLFKNLGIEAVPWTADIPLKVVGMFPSRGEKRALWKLAYDLYSCTSIYKFGRIEVNMFIGEKEFQKLMADPGNPDLYHVLSVIWQLACEIKVLHMEPWSSFDIYTRKGPLENPKRRELLDQLQQKLYLIQMIPRQNLFTKNLTPMNYNIFFHLLKHCFGRRSATVIDHLRSLTPLDARDILMQIGKQEDEKVVNMHPQDFKTLFETIERSKDCAYKWLYDETLEDR
- binding result [2]: binds

B3: Human mitochondrial transcription factor A (TFAM) Δ42 (natural protein, UniProt Q00059 43-245, looked up)
chain: SSVLASCPKKPVSSYLRFSKEQLPIFKAQNPDAKTTELIRRIAQRWRELPDSKKKIYQDAYRAEWQVYKEEISRFKEQLTPSQIMSLEKEIMDKHLKRKAMTKKKELTLLGKPKRPRSAYNVYVAERFQEAKGDSPQEKLKTVKENWKNLSDSEKELYIQHAKEDETRYHNEMKSWEEQMIEVGRKDLLRRTIKKQRKYGAEE
- binding result [1]: binds

B4: Human transcription factor 2 (TFB2M) Y209A (natural protein, UniProt Q9H5Q4 21-396, looked up)
chain: GRFCILGSEAATRKHLPARNHCGLSDSSPQLWPEPDFRNPPRKASKASLDFKRYVTDRRLAETLAQIYLGKPSRPPHLLLECNPGPGILTQALLEAGAKVVALESDKTFIPHLESLGKNLDGKLRVIHCDFFKLDPRSGGVIKPPAMSSRGLFKNLGIEAVPWTADIPLKVVGMFPSRGEKRALWKLAADLYSCTSIYKFGRIEVNMFIGEKEFQKLMADPGNPDLYHVLSVIWQLACEIKVLHMEPWSSFDIYTRKGPLENPKRRELLDQLQQKLYLIQMIPRQNLFTKNLTPMNYNIFFHLLKHCFGRRSATVIDHLRSLTPLDARDILMQIGKQEDEKVVNMHPQDFKTLFETIERSKDCAYKWLYDETLEDR
- binding result [2]: binds

B5: Human transcription factor 2 (TFB2M) (GS)3-loop (natural protein, UniProt Q9H5Q4 21-396, looked up)
chain: GRFCILGSEAATRKHLPARNHCGLSDSSPQLWPEPDFRNPPRKASKASLDFKRYVTDRRLAETLAQIYLGKPSRPPHLLLECNPGPGILTQALLEAGAKVVALESDKTFIPHLESLGKNLDGKLRVIHCDFFKLDPGSGSGSGPPAMSSRGLFKNLGIEAVPWTADIPLKVVGMFPSRGEKRALWKLAYDLYSCTSIYKFGRIEVNMFIGEKEFQKLMADPGNPDLYHVLSVIWQLACEIKVLHMEPWSSFDIYTRKGPLENPKRRELLDQLQQKLYLIQMIPRQNLFTKNLTPMNYNIFFHLLKHCFGRRSATVIDHLRSLTPLDARDILMQIGKQEDEKVVNMHPQDFKTLFETIERSKDCAYKWLYDETLEDR
- binding result [2]: binds

B6: LSP -43 to +13, -4 to +1 bubble (56 bp) (dsDNA)
DNA 1: ATGTGTTAGTTGGGGGGTGACTGTTAAAAGTGCATACCGAACAAAGATAAAATTTG
DNA 2: CAAATTTTATCTCCAGGCGGTATGCACTTTTAACAGTCACCCCCCAACTAACACAT
- binding result [3]: binds

B7: LSP bubble with pppGpGpA RNA (slipped IC3) (mixed)
DNA 1: ATGTGTTAGTTGGGGGGTGACTGTTAAAAGTGCATACCGAACAAAGATAAAATTTG
DNA 2: CAAATTTTATCTCCAGGCGGTATGCACTTTTAACAGTCACCCCCCAACTAACACAT
?: GGA
modifications: RNA 5' triphosphate
- binding result [4]: binds

B8: Alexa488-Δ41 TFB2M (natural protein, human, UniProt Q9H5Q4 42-396, looked up)
chain: CGLSDSSPQLWPEPDFRNPPRKASKASLDFKRYVTDRRLAETLAQIYLGKPSRPPHLLLECNPGPGILTQALLEAGAKVVALESDKTFIPHLESLGKNLDGKLRVIHCDFFKLDPRSGGVIKPPAMSSRGLFKNLGIEAVPWTADIPLKVVGMFPSRGEKRALWKLAYDLYSCTSIYKFGRIEVNMFIGEKEFQKLMADPGNPDLYHVLSVIWQLACEIKVLHMEPWSSFDIYTRKGPLENPKRRELLDQLQQKLYLIQMIPRQNLFTKNLTPMNYNIFFHLLKHCFGRRSATVIDHLRSLTPLDARDILMQIGKQEDEKVVNMHPQDFKTLFETIERSKDCAYKWLYDETLEDR
modifications: Alexa Fluor 488 C5 maleimide label (labelling efficiency ~76%)
- Kd [5]: 6.1 nM

B9: LSP -42 to +9 duplex (dsDNA)
DNA 1: TGTGTTAGTTGGGGGGTGACTGTTAAAAGTGCATACCGCCAAAAGATAAAA
DNA 2: TTTTATCTTTTGGCGGTATGCACTTTTAACAGTCACCCCCCAACTAACACA
- Kd [6]: 6.1 nM
